Test results from publication PMC9482650, “Quantitative fragmentomics allow affinity mapping of interactomes” (Nature Communications, 2022).
Where a chain is given by its changes, count along the chain named.

Key:
Assay in all cases: holdup assay
Design in all cases: key: below the threshold = too weak to quantify, mostly under pKd 3.1 to 4
[1] = molecular target: TJP1_3, Q07157
[2] = molecular target: T1, PDZRN3_1, Q9UPQ7
T1 sequence (Q9UPQ7 244-349, limits assumed, looked up): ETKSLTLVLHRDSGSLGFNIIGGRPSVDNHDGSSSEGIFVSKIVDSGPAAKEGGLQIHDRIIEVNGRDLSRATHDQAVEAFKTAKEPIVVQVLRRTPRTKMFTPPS

[3] = molecular target: T2, PCLO, Q9Y6V0
T2 sequence (Q9Y6V0 4491-4600, limits assumed, looked up): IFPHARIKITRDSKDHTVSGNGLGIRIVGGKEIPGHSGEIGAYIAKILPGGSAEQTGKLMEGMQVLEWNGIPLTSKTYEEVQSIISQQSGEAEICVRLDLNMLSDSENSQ

[4] = molecular target: T3, MPP7, Q5T2T1
T3 sequence (Q5T2T1 134-230, limits assumed, looked up): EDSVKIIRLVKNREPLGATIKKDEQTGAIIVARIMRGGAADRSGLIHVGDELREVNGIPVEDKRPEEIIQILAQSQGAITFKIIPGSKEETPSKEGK

[5] = molecular target: T4, ARHGAP21, Q5T5U3
T4 sequence (Q5T5U3 45-169, limits assumed, looked up): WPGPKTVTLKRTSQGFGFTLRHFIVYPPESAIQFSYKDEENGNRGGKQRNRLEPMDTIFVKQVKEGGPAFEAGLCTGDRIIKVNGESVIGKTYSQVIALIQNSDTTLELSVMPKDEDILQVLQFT

[6] = molecular target: DLG4_2, P78352
[7] = molecular target: T5, LNX2_3, Q8N448
T5 sequence (Q8N448 463-564, limits assumed, looked up): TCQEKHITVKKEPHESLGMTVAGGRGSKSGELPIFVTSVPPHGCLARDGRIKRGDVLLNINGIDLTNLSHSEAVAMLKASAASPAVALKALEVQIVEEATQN

[8] = molecular target: T6, NHERF3_1, Q5T2W1
T6 sequence (Q5T2W1 4-100, limits assumed, looked up): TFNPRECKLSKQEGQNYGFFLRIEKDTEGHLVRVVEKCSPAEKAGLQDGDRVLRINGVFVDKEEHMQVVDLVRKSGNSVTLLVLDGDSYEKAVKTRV

[9] = molecular target: LNX1_3, Q8TBB1
[10] = molecular target: PTPN3, P26045
[11] = molecular target: T7, APBA2_2, Q99767
T7 sequence (Q99767 654-744, limits assumed, looked up): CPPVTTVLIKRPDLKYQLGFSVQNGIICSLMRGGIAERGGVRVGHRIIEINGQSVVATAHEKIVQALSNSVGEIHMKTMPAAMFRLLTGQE

[12] = molecular target: GRIP2_5, Q9C0E4
[13] = molecular target: GRIP2_3, Q9C0E4
[14] = molecular target: T8, SNTG1, Q9NSN8
T8 sequence (Q9NSN8 52-150, limits assumed, looked up): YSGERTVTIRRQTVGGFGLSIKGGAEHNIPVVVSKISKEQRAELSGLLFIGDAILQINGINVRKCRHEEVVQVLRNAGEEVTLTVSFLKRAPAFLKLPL

[15] = molecular target: SCRIB_3, Q14160
[16] = molecular target: T9, APBA1_2, Q02410
T9 sequence (Q02410 742-832, limits assumed, looked up): T7 sequence (Q99767 654-744, limits assumed, looked up) with K10R, K15R, A59P, Q65H, A66I, S70A, F84Y, G89A

[17] = molecular target: MAGI2_5, Q86UL8
[18] = molecular target: GRIP2_4, Q9C0E4
[19] = molecular target: Inadl_10, Q8NI35
[20] = molecular target: T10, MPP2, Q14168
T10 sequence (Q14168 180-250, limits assumed, looked up): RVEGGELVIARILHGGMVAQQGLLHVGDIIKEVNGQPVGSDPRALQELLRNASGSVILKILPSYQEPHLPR

[21] = molecular target: IL16_3, Q14005
[22] = molecular target: GRID2IP_2, A4D2P6
[23] = molecular target: LNX1_1, Q8TBB1
[24] = molecular target: FRMPD4, Q14CM0
[25] = molecular target: MAGI2_4, Q86UL8
[26] = molecular target: DLG1_1, Q12959
[27] = molecular target: IL16_1, Q14005
[28] = molecular target: GRIP2_6, Q9C0E4
[29] = plain residues with an end cap or a label only (N-terminal biotin on a linker: ado-ado)
[30] = plain residues with an end cap or a label only (N-terminal biotin on a linker: ahx)

DLG4_2, P78352, sequence (P78352 155-259): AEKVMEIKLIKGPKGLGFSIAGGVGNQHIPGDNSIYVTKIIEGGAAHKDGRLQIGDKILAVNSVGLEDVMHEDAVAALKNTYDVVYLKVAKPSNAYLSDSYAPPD
IL16_3, Q14005, sequence (Q14005 1107-1207): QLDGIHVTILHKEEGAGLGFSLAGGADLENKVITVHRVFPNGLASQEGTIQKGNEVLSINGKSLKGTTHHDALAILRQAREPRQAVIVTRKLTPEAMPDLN
GRIP2_6, Q9C0E4, sequence (Q9C0E4 648-740): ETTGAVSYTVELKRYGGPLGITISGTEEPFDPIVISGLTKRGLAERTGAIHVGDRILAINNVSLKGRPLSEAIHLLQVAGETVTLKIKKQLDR
SCRIB_3, Q14160, sequence (Q14160 999-1103): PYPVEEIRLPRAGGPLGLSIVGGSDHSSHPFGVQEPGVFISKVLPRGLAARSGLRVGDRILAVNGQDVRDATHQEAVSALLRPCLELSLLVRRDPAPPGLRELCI
GRIP2_5, Q9C0E4, sequence (Q9C0E4 544-642): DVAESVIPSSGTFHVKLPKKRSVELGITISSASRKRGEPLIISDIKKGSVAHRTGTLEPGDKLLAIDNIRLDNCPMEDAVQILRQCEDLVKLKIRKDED
LNX1_3, Q8TBB1, sequence (Q8TBB1 500-596): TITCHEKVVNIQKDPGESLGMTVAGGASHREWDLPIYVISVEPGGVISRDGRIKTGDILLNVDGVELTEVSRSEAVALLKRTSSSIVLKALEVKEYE
MAGI2_5, Q86UL8, sequence (Q86UL8 915-1017): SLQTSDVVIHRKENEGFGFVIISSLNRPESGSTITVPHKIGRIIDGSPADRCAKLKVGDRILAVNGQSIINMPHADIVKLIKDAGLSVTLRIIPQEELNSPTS
Inadl_10, Q8NI35, sequence (Q8NI35 1673-1763): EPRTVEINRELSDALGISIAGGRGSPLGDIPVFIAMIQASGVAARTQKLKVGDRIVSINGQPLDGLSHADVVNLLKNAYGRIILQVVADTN
FRMPD4, Q14CM0, sequence (Q14CM0 67-160): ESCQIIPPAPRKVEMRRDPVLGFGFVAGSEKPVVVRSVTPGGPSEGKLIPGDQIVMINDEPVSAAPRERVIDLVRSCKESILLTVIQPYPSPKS
PTPN3, P26045, sequence (P26045 505-587): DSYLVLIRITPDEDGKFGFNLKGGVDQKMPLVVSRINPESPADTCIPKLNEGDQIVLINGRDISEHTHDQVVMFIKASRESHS
LNX1_1, Q8TBB1, sequence (Q8TBB1 261-371): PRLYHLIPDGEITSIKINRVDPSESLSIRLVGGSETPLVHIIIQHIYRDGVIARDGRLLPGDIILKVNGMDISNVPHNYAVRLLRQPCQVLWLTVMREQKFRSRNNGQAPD
GRIP2_3, Q9C0E4, sequence (Q9C0E4 238-339): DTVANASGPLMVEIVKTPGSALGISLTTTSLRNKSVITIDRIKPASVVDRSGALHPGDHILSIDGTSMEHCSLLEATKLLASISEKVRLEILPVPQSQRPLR
GRID2IP_2, A4D2P6, sequence (A4D2P6 272-370): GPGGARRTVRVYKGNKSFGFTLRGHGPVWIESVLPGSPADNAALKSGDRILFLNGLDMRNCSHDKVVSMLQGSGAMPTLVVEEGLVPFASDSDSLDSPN
IL16_1, Q14005, sequence (Q14005 210-306): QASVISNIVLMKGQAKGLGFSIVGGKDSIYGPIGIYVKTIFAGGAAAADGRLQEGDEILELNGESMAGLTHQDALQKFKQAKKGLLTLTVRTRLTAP
GRIP2_4, Q9C0E4, sequence (Q9C0E4 446-548): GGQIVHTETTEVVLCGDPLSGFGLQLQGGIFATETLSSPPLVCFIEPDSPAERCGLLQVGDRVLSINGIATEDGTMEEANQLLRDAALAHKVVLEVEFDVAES
MAGI2_4, Q86UL8, sequence (Q86UL8 772-865): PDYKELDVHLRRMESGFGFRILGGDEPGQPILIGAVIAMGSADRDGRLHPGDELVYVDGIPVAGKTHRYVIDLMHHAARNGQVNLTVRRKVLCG
TJP1_3, Q07157, sequence (Q07157 416-512): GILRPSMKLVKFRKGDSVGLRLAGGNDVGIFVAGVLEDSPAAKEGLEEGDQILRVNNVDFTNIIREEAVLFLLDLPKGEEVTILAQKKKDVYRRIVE

B1: CACNG8, Q8WXS5 (peptide)
chain: NTLNRKTTPV
pKd [1, 29]: below the threshold
pKd [2, 29]: 3.97
pKd [3, 29]: below the threshold
pKd [4, 29]: below the threshold
pKd [5, 29]: 3.86
pKd [6, 29]: 4.94
pKd [7, 29]: below the threshold
pKd [8, 29]: 3.48
pKd [9, 29]: below the threshold
pKd [10, 29]: 4.98
pKd [11, 29]: below the threshold
pKd [12, 29]: 3.54
pKd [13, 29]: below the threshold
pKd [14, 29]: below the threshold
pKd [15, 29]: 3.88
pKd [16, 29]: 3.91
pKd [17, 29]: below the threshold
pKd [18, 29]: 3.52
pKd [19, 29]: below the threshold
pKd [20, 29]: below the threshold
pKd [21, 29]: below the threshold
pKd [22, 29]: 3.94
pKd [23, 29]: 3.66
pKd [24, 29]: below the threshold
pKd [25, 29]: 3.69
pKd [26, 29]: 4.32
pKd [27, 29]: below the threshold
pKd [28, 29]: below the threshold

B2: FRMPD1, Q5SYB0 (peptide)
chain: TQKFRASTAL
pKd [1, 30]: below the threshold
pKd [2, 30]: 4.16
pKd [3, 30]: below the threshold
pKd [4, 30]: below the threshold
pKd [5, 30]: below the threshold
pKd [6, 30]: 3.55
pKd [7, 30]: below the threshold
pKd [8, 30]: 5.47
pKd [9, 30]: below the threshold
pKd [10, 30]: 4.45
pKd [11, 30]: below the threshold
pKd [12, 30]: below the threshold
pKd [13, 30]: below the threshold
pKd [14, 30]: below the threshold
pKd [15, 30]: 4.59
pKd [16, 30]: 3.5
pKd [17, 30]: 3.59
pKd [18, 30]: below the threshold
pKd [19, 30]: 3.61
pKd [20, 30]: below the threshold
pKd [21, 30]: below the threshold
pKd [22, 30]: 4.18
pKd [23, 30]: below the threshold
pKd [24, 30]: 3.73
pKd [25, 30]: 3.48
pKd [26, 30]: below the threshold
pKd [27, 30]: below the threshold
pKd [28, 30]: below the threshold

B3: FAM110D, Q8TAY7 (peptide)
chain: ARGPPRESEV
pKd [1, 29]: below the threshold
pKd [2, 29]: 5.07
pKd [3, 29]: below the threshold
pKd [4, 29]: below the threshold
pKd [5, 29]: 3.8
pKd [6, 29]: 5.63
pKd [7, 29]: below the threshold
pKd [8, 29]: 4.03
pKd [9, 29]: below the threshold
pKd [10, 29]: 4.94
pKd [11, 29]: below the threshold
pKd [12, 29]: below the threshold
pKd [13, 29]: below the threshold
pKd [14, 29]: 5.23
pKd [15, 29]: 4.63
pKd [16, 29]: 3.69
pKd [17, 29]: 3.9
pKd [18, 29]: below the threshold
pKd [19, 29]: below the threshold
pKd [20, 29]: below the threshold
pKd [21, 29]: below the threshold
pKd [22, 29]: below the threshold
pKd [23, 29]: 3.78
pKd [24, 29]: below the threshold
pKd [25, 29]: 4.09
pKd [26, 29]: 4.7
pKd [27, 29]: 4.97
pKd [28, 29]: below the threshold

B4: KLHDC7A, Q5VTJ3 (peptide)
chain: PTPDLPQTRV
pKd [1, 29]: below the threshold
pKd [2, 29]: 3.53
pKd [3, 29]: below the threshold
pKd [4, 29]: below the threshold
pKd [5, 29]: below the threshold
pKd [6, 29]: 3.5
pKd [7, 29]: below the threshold
pKd [8, 29]: 4.36
pKd [9, 29]: below the threshold
pKd [10, 29]: below the threshold
pKd [11, 29]: below the threshold
pKd [12, 29]: below the threshold
pKd [13, 29]: below the threshold
pKd [14, 29]: 4.36
pKd [15, 29]: below the threshold
pKd [16, 29]: 3.54
pKd [17, 29]: below the threshold
pKd [18, 29]: below the threshold
pKd [19, 29]: below the threshold
pKd [20, 29]: below the threshold
pKd [21, 29]: below the threshold
pKd [22, 29]: 4.26
pKd [23, 29]: 3.89
pKd [24, 29]: 3.48
pKd [25, 29]: below the threshold
pKd [26, 29]: below the threshold
pKd [27, 29]: 3.59
pKd [28, 29]: below the threshold
